For one substance, lag time of SNAP-25 aggregation (50 μM SNAP-25, optical density results are on record in PMC11697113, “The Hsc70 system maintains the synaptic SNARE protein SNAP-25 in an assembly-competent state and delays its aggregation [drawing 1]” (The Journal of Biological Chemistry, 2024).

In this assay the target is heat shock cognate 70 (Hsc70), human constitutively expressed Hsp70, wild type (human) (UniProt P11142).
heat shock cognate 70 (Hsc70), human constitutively expressed Hsp70, wild type (human), sequence (P11142 whole entry): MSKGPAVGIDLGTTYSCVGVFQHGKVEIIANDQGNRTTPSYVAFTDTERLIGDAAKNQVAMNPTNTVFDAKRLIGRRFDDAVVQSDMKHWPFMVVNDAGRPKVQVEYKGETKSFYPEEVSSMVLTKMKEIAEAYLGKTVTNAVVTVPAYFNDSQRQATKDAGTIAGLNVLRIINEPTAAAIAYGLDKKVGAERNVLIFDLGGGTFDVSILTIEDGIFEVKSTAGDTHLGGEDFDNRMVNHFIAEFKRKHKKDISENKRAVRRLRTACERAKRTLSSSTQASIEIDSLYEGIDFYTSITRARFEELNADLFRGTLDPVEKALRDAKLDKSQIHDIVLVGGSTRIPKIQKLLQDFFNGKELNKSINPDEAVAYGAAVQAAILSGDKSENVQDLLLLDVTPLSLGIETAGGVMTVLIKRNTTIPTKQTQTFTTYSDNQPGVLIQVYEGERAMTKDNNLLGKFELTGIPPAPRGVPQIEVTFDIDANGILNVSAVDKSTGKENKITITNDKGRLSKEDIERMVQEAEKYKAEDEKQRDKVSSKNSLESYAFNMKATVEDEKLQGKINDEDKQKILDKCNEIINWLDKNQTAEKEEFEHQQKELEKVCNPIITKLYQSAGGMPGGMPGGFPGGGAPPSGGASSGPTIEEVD

With “SNAP-25 (SNAP-25B, Cys-less CS mutant), His tag cleaved (from UniProt P60880-1 1-206) (natural protein)”, the lag time of SNAP-25 aggregation (50 μM SNAP-25, optical density at 360 nm, 37 °C) in the presence of Hsc70 (5 μM); ∼38 h without Hsc70 worked out at 65 h.
